This note sets out measurements from US20210122826A1 (MIT, published 2021).

Assay [1] addresses T1, cynomolgus CD161 (cynomolgus).
T1 construct: UniProt A0A2K5WYI1; also called cynoCD161
T1 chain: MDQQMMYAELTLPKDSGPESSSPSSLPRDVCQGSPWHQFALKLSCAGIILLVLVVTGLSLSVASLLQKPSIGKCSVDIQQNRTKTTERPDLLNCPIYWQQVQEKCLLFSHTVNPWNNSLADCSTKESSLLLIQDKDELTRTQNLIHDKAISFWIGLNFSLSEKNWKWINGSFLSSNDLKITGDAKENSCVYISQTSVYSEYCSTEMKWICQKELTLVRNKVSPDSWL
As to the kind of experiment: flow, Jurkat.

The target in the next assay is T2, Human CD209 (human, UniProt Q9NNX6 1-404).
T2 construct: also called hCD209
T2 sequence: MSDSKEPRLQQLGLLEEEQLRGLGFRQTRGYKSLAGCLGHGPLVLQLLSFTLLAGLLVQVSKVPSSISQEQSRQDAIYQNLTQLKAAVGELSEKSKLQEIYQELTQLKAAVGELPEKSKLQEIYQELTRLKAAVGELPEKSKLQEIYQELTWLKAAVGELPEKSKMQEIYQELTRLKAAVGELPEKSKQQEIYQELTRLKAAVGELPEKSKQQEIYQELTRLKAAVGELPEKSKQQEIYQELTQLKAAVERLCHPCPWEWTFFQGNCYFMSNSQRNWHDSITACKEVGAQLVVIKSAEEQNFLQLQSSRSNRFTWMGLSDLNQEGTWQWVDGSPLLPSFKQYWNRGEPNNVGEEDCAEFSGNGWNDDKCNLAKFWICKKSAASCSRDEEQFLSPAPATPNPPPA
As to the kind of experiment: flow, Jurkat, 100 nM Ab.

The next assay addresses T3, Human KLRF1 (human, UniProt Q9NZS2 1-231).
T3 construct: also called hKLRF1
T3 sequence: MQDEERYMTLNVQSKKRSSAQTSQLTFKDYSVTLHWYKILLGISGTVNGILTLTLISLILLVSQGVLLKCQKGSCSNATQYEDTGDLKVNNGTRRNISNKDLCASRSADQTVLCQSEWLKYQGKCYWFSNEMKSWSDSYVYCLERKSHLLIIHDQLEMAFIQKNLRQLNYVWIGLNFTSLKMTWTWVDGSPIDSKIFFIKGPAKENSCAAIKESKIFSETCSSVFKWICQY
As to the kind of experiment: flow, Jurkat, 100 nM Ab.

In the next assay the target is T4, Human Clec5A (human, UniProt Q9NY25 1-188).
T4 construct: also called hClec5A
T4 sequence: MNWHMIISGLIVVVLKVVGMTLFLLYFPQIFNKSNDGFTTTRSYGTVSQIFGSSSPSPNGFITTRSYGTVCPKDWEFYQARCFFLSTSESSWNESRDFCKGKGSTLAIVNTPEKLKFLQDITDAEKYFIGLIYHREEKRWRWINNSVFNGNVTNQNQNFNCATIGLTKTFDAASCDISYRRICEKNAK
As to the kind of experiment: flow, Jurkat, 100 nM Ab.

For another assay, the target named is T5, Human OLR1 (human, UniProt P78380 1-273).
T5 construct: also called hOLR1
As to the kind of experiment: flow, Jurkat, 100 nM Ab.

In assay [2] the target is T1, cynomolgus CD161. As to the kind of experiment: flow, Jurkat, 100 nM Ab.
Another assay deals with T6, Human Clec7A (human, UniProt Q9BXN2 1-247).
T6 construct: also called hClec7A
T6 sequence: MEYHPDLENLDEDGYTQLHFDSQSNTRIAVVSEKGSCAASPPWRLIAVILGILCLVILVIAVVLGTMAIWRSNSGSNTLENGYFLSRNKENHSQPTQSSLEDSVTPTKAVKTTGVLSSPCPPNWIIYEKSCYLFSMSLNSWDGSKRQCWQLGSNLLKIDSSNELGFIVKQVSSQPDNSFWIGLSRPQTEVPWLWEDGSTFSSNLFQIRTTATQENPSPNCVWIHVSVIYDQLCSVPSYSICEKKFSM
As to the kind of experiment: flow, Jurkat, 100 nM Ab.

Another assay concerns the target T7, Human Clec12B (human, UniProt Q2HXU8 1-276).
T7 construct: also called hClec12B
T7 sequence: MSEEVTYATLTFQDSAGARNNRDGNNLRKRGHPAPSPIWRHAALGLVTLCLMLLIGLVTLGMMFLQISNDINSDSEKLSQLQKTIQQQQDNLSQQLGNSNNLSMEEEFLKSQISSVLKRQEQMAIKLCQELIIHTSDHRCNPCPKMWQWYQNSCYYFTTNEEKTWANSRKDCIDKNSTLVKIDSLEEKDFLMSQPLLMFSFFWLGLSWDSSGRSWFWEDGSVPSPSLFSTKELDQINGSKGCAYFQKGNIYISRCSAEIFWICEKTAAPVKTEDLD
As to the kind of experiment: flow, Jurkat, 100 nM Ab.

The target in assay [3] is T1, cynomolgus CD161. As to the kind of experiment: flow, Jurkat, 100 nM Ab.
Assay [4] addresses T8, human CD161 (human, UniProt Q12918 1-225).
T8 construct: UniProt Q12918; also called hCD161; KLRB1
As to the kind of experiment: flow, Jurkat, Ab titration.

Assay [5] concerns the target T1, cynomolgus CD161. As to the kind of experiment: flow, Jurkat, Ab titration.
For assay [6], the target named is T8, human CD161. As to the kind of experiment: flow, Jurkat, Ab titration. The procedure: (§1) To measure binding, Jurkat cells expressing hCD161 or cynoCD161 were incubated with 0.01 nM to either 0.1 μM or 0.3 μM anti-CD161 antibodies as listed in Table 12. Jurkat cells expressing cynoCD161 were prepared using the methods described in Example 7. Volumes were sufficiently large such that ligand was depleted less than 10%. Following a three-hour incubation on ice, cells were washed and stained with fluorescent anti-human secondary antibody. The cells were washed, and labeling of antibody binding was assessed by flow cytometry to determine the MFI as a function of anti-CD161 antibody concentration. Raw MFI (top panel) and MFI normalized to the maximum value in each dataset (bottom panel) are shown for binding to hCD161 (FIG. 7C) and to cynoCD161 (FIG. 7D).
This is another data set of the same source.

Assay [7] has as its target T1, cynomolgus CD161. As to the kind of experiment: flow, Jurkat, Ab titration. Here is the method: as §1
Assay [8] concerns the target T8, human CD161. As to the kind of experiment: flow cytometry titration of soluble IgG on Jurkat hCD161+ cells, fluorescent secondary antibody, MFI against Ab concentration (log [M]). The procedure:
as §1

The target in assay [9] is T1, cynomolgus CD161. As to the kind of experiment: flow cytometry titration of soluble IgG on Jurkat cynoCD161+ cells, fluorescent secondary antibody, MFI against concentration (log [M]). Here is the method:
as §1

Read-outs that look alike come from different tables or passages of the source.

B1: anti-CD161 KW17 (antibody, V domains shown)
VH: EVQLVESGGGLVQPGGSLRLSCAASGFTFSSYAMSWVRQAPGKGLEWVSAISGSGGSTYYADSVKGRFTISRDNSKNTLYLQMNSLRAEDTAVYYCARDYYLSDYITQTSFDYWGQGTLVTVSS
VL: QSVLTQPPSVSGAPGQRVTISCTGSSSNIGAGYDVHWYQQLPGTAPKLLIYGNSNRPSGVPDRFSGSKSGTSASLAITGLQAEDEADYYCQSYDSSHTVFGGGTQLTVL
notes: Human, lambda light chain; scFv-Fc or full IgG not clear; also called KW17-Fc
Take B1: in the assay with cynomolgus CD161 [1], the binding result was “no binding (tested: 100 nM)”. The “MFI normalized to WT” value in the assay with Human CD209 turned out to be 0.92; with Human KLRF1 it was 0.89; in the assay with Human Clec5A it was 1.04; with Human OLR1 it was 0.98; in the assay with cynomolgus CD161 [2], 0.98; with Human Clec7A, 1.13.

B2: KW17.3.4 (antibody, V domains shown)
VH: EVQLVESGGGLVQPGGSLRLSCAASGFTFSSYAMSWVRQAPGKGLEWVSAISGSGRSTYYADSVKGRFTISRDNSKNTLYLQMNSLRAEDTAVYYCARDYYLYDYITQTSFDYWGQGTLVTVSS
VL: QSVLTQPPSVSGAPGQRVTISCTGSSSNIGAGYDVHWYQQLPGTAPKLLIYGNSNRPSGVPDRFSGSQSGTSASLAITGLQAEDEADYYCQSYNSGHTVFGGGTQLTVL
With B2, the “MFI normalized to WT” value with Human Clec12B was 1.09; with cynomolgus CD161 [3], 1.03. The binding result with cynomolgus CD161 [1] is “no binding (tested: 100 nM)”.

B3: KW1.2.1 (antibody, V domains shown)
VH: EVQLVESGGGLVQPGGSLRLSCAASGSTFSSYAMSWVRQAPGKGLEWVSTISGSGGSTYYADSVKGRFTISRDNSRNTLYLQMNSLRAEDTAVYYCARGGLIPSGFDYWGQGTLVTVSS
VL: DIQMTQSPSSPSASVGDRVTITCRASQSISSYLNWYQQKPGKAPKLLIYAASSLLSGVPSRFSGSGSGTDFTLTISSLQPEDFATYYCQQTYSTPLTFGQGTKVEIK
Turning to B3, the “MFI normalized to WT” value stood at 1.11 in the assay with Human Clec12B and 103 with cynomolgus CD161 [3]. The “fold binding vs HP-3G10” value in the assay with human CD161 [4] and with cynomolgus CD161 [5] was roughly 10 fold in each case. The dissociation constant Kd with human CD161 [6] worked out at 0.233 nM; with cynomolgus CD161 [7] it was 0.247 nM. In the assay with human CD161 [8], the “EC50 (read off the curve)” value was roughly 0.2 nM.

B4: KM12.2.3 (antibody, human IgG1, V domains shown)
VH: EVQLVESGGGLVQPGGSLRLSCAASGFTFSSYAMSWIRQAPGKGLEWVSAISGSGGSIYYADSVKGRFTISRDNSKNTLYLQMNSLRAEDTAVYYCARGYSDSYFYGPYYTFDYWGQGTLVTVSS
VL: DIQMTQSPSSLSASVGDRVTITCRASQGISSYLNWYQQKPGKAPKLLIYAASSLQSGVSSRFSGSGSGTDFTLTISSLQPEDFATYYCQQSYNTPLTFGQGTKVEIK
For the molecule B4, the “MFI normalized to WT” value with Human Clec12B is 1.33; with cynomolgus CD161 [3], 11.9.

B5: KW9.3.3 (antibody, V domains shown)
VH: EVQLVESGGGLVQPGGSLRLSCAASGFTFSSYAMSWVRQAPGKGLEWVSAISGSGGRTYYADSVKGRFTISRDNSKNTLYLQMNSLRAEDTAMYYCARGPGYMYLYGDSFFEYWGQGTLVTVSS
VL: DIQMAQSPSSLSASVGDRVTITCRASQGISSYLNWYQQKPGKAPKLLIYAASSLQSGVPSRFSGSGYGTDFTLTISSLQPEDFATYYCQQSYSTPLTFGQGTKVEIK
Take B5: the entries for the “MFI normalized to WT” value with Human Clec12B and with cynomolgus CD161 [3] were 0.94 and 0.89, respectively. In the assay with cynomolgus CD161 [1], the binding result is on record as “no binding (tested: 100 nM)”.

B6: KW7.3.7 (antibody, V domains shown)
VH: EVQLVESGGGLVQPGGSLRLSCAASGFTFSSYAMSWVRQAPGKGLEWVSATSGSGGSTYYADSAKGRFTISRDNSKNTLYLQMNSLRAEDTAVYYCARGGYLPDAFDYWGRGTLVTVSS
VL: DIQMTQSPSSLSASVGDRVTITCWASQSISSYLNWYQQEPGKAPKLLIYAASSLQSGVPSRFSGSGSGTDFTLTISSLQPEDFATYYCQQTYSTPLTFGQGTKVEIK
On to B6, for which the “MFI normalized to WT” value in the assay with Human Clec12B is 1.05.

B7: KW1.3.12 (antibody, human IgG1, V domains shown)
VH: EVQLVESGGGLVQPGGSLRLSCAASGFTFSSYAMSWVRQAPGKGLEWVSTISGSGGSTYYADSVKGRFTISRDNSRNTLYLQMNSLRAEDTAVYYCARGGLIPSGFDYWGQGTLVTVSS
VL: DIQMTQSPSSLSASVGDRVTITCRASQSISSYLNWYQQKPGKAPKLLIYAASSLLSGVPSRFSGSGSGTDFTLTISSLQPEDFATYYCQQTYSAPLTFGQGTKVEIK
In the case of B7, the “MFI normalized to WT” value in the assay with Human Clec12B came out at 1.1; with cynomolgus CD161 [3] it was 117. Moreover, the “EC50 (read off the curve)” value in the assay with cynomolgus CD161 [9] is roughly 0.3 nM; with human CD161 [8] it was roughly 0.4 nM. Also, the “fold binding vs HP-3G10” value with human CD161 [4] and with cynomolgus CD161 [5] was roughly 10 fold throughout. In addition, the figures for the Kd with human CD161 [6] and with cynomolgus CD161 [7] were 0.249 nM and 0.274 nM, respectively.

B8: KM12.4.7 (antibody, V domains shown)
VH: EVQLVESGGGLVQPGGSLRLPCAASGFTFSSYAMSWIRQAPGKGLEWVSAISGSGGSIYYADSVKGRFTISRDNSKNTLYLQMDSLRAEDTAVYYCARGYSDSYFYGPYYTFDYWGQGTLVTVSS
VL: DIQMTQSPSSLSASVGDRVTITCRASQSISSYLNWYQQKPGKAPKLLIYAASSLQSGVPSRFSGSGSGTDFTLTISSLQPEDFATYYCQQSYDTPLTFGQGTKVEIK
As for B8, the “MFI normalized to WT” value was 1.12 in the assay with Human Clec12B and 116 in the assay with cynomolgus CD161 [3]. The “EC50 (read off the curve)” value in the assay with cynomolgus CD161 [9] was roughly 0.2 nM; in the assay with human CD161 [8] it was roughly 0.09 nM. Besides, the “fold binding vs HP-3G10” value with human CD161 [4] and with cynomolgus CD161 [5] was roughly 10 fold throughout. Besides, the Kd in the assay with human CD161 [6] amounted to 0.0925 nM; with cynomolgus CD161 [7], 0.225 nM.

B9: KW7.2.2 (antibody, V domains shown)
VH: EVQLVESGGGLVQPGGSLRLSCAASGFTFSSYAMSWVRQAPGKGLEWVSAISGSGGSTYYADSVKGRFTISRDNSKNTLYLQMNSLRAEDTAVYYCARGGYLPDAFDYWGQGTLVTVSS
VL: DIQMTQSPSSLSASVGDRVTITCRASQSISSYLNWYQQKPGKAPRFLIYAASSLQSGVPSRFSGSGSGTDFTLTISSLQPEDFATYYCQQTYSTPLTFGQGTKVEIK
As for B9, the “MFI normalized to WT” value with Human Clec12B was 1.37; in the assay with cynomolgus CD161 [3], 108. The “fold binding vs HP-3G10” value with human CD161 [4] and with cynomolgus CD161 [5] was roughly 10 fold in each case. Further, the Kd with human CD161 [6] came out at 0.207 nM; with cynomolgus CD161 [7], 0.24 nM. In the assay with human CD161 [8], the “EC50 (read off the curve)” value is roughly 0.2 nM.
